The source of these data is paper PMC2700308 (Biochemistry, 2009).

The assay addresses Full-length gp120 from the subtype B YU2 HIV-1 strain (HIV-1, subtype B, strain YU2, UniProt P35961 32-498). The experiment in a line: ITC. Background: ITC needs no label: the signal is the heat of the interaction.

Square brackets hold non-standard residues; d marks the D form. Ends that are not written are not given here. sY = N[C@@H](Cc1ccc(OS(=O)(=O)O)cc1)C(=O)O

B1: S22 peptide, 22 amino acid tyrosine-sulfated peptide corresponding to the CCR5 N-terminus (peptide)
peptide: MDYQVSSPI[sY]DIN[sY]YTSEPSQK
The molecule B1 showed a Kd of at least 1000 µM.

The Kd is the constant that tells how readily two partners part at equilibrium. Read a low Kd as tighter binding.
